Laboratory results as given in patent publication US20090029924A1.

Target: Recombinant human furin (human), P09958
Experiment: furin, Pyr-RTKR-AMC cleavage

Recombinant human furin (human), P09958, sequence (P09958 108-714 limits assumed): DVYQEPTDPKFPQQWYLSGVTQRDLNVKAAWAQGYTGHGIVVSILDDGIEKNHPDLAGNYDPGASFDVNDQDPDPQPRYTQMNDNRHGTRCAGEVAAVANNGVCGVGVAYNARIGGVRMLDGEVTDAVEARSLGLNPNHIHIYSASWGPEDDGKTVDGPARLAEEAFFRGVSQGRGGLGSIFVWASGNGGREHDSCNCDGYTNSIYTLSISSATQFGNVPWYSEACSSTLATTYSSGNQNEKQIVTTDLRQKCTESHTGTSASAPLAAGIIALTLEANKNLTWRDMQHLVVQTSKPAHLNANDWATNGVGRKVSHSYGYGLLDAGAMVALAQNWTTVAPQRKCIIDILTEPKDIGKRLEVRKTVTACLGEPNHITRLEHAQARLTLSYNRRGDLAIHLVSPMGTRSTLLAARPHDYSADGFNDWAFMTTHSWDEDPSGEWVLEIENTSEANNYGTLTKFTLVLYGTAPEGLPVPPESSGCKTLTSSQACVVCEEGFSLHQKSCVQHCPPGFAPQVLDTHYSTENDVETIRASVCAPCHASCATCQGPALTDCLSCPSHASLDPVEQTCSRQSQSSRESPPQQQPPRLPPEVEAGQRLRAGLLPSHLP

RRRKKRT (modifications not checked)
Ki: 17.6 nM

RRKKRT (modifications not checked)
Ki: 32.5 nM

RKKRT (modifications not checked)
Ki: 1000 nM

TPRERRRKAAV (modifications not checked) […]
Ki: > 100 nM
